Source: publication PMC8167812 (Cell reports, 2021)

Molecular target: Histone H3 tail peptide H3K9MK14C with a C-terminal biotinylated lysine (fission yeast, C-terminal biotinylated lysine)
Experiment: BLI

t1/2: 9.6 s
B1: Clr4 SET domain (residue 190–490) (domain or fragment)
chain: NPSKLDSYTHLSFYEKRELFRKKLREIEGPEVTLVNEVDDEPCPSLDFQFISQYRLTQGVIPPDPNFQSGCNCSSLGGCDLNNPSRCECLDDLDEPTHFAYDAQGRVRADTGAVIYECNSFCSCSMECPNRVVQRGRTLPLEIFKTKEKGWGVRSLRFAPAGTFITCYLGEVITSAEAAKRDKNYDDDGITYLFDLDMFDDASEYTVDAQNYGDVSRFFNHSCSPNIAIYSAVRNHGFRTIYDLAFFAIKDIQPLEELTFDYAGAKDFSPVQSQKSQQNRISKLRRQCKCGSANCRGWLFG
